Measured values from patent publication US20240287172A1 (SCIRHOM, published 2024).

T1: hiR2-FL-K542A-T7 (human, UniProt Q6PJF5 1-856)
T1 sequence: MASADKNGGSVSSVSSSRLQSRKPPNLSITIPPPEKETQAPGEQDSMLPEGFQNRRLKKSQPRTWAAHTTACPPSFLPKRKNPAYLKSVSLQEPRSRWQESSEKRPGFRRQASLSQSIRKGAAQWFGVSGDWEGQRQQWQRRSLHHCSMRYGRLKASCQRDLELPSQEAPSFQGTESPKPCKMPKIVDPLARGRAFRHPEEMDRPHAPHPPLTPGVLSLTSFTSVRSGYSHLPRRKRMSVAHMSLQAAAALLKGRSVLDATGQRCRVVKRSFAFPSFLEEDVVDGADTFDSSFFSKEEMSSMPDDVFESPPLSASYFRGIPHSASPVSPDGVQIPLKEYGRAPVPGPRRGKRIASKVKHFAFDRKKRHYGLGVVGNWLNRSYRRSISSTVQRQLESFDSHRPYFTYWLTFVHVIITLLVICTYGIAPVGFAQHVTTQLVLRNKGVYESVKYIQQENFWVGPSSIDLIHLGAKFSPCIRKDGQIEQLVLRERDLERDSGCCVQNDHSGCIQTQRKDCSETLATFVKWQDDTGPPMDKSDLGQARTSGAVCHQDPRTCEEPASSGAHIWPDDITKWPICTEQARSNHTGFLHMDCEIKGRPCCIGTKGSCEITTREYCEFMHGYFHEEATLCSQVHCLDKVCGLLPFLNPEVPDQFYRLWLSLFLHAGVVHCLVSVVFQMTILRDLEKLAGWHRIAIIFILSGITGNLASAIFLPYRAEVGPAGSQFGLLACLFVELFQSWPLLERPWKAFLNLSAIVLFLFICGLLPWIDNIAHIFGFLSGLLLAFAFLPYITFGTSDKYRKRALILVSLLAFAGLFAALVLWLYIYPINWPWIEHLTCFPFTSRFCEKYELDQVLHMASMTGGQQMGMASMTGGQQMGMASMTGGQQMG

T2: hiR2-FL-M591A-T7 (human, UniProt Q6PJF5 1-856)
T2 sequence: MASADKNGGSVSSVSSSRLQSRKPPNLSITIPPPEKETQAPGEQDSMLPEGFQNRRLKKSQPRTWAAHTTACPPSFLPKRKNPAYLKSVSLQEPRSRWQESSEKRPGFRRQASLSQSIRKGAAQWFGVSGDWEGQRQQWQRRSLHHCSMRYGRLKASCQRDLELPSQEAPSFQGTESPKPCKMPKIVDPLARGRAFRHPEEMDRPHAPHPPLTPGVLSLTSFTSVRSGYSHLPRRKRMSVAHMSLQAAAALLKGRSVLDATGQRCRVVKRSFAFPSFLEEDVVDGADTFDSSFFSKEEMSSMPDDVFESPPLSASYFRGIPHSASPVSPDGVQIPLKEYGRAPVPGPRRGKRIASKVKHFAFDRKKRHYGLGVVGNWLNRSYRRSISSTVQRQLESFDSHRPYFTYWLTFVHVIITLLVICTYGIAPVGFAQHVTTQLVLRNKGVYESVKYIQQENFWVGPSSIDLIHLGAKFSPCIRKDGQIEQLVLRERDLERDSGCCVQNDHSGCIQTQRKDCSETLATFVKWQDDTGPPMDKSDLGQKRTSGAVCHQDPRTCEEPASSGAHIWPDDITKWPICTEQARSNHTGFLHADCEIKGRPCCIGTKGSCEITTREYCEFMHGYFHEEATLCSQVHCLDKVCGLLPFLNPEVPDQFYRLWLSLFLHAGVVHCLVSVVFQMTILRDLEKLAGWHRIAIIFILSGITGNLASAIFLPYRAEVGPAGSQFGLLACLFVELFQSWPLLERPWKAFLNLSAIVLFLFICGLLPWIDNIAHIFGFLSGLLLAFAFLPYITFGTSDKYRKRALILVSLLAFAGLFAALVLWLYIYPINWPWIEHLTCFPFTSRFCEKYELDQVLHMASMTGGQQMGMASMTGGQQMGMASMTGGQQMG


Key:
hiR2-FL-K542A-T7 = target: T1, hiR2-FL-K542A-T7; test: FACS on MEF-DKO cells expressing the variant, 3 µg/ml antibody
How it was run: (§1)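 Cells were stained with purified antibody at 3 μg/ml in FACS buffer for 1 hour on ice, with buffer-only controls. Bound antibody was detected with PE-conjugated goat anti-mouse IgG F(ab′)2 at 1:100, 1 hour on ice in the dark, followed by flow cytometry.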

hiR2-FL-M591A-T7 = target: T2, hiR2-FL-M591A-T7; test: as above
How it was run: as §1

Binder | loss of binding vs wild type (hiR2-FL-K542A-T7) | loss of binding vs wild type (hiR2-FL-M591A-T7)
antibody 16 (antibody, V domains shown, mouse IgG, kappa light chain; also called clone #16; purified antibody 16) VH: QVTLKESGPGILQPSQTLSLTCSFSGFSLSTFALGVGWIRQPSGRGLEWLAHIWWDDDKYYNPALKSRLTISKDTSKNHVFLKIANVDTADTATYYCARITTYYYGMDYWGQGTSVTVSS VL: DIVLSQSPATLSVTPGDSVSLFCRASQSIGNHLHWYQQESHASPRLLIKYASQSISGIPSRFSGSGSGTDFTLSINSVETEDFGMYFCQQSYNWPLTFGAGTKLELK | ≥ 30% | –
antibody 3 (antibody, V domains shown, mouse IgG, kappa light chain; also called clone #3; purified antibody 3) VH: QVTLKESGPGILQPSQTLSLTCSFSGFSLTTFAMGIGWVRQPSGKGLEWLAHIWWDGEKYNNPVLKSRLTISKDTSKNQVFLRIANVDTPDTATYYCARISSIYYIIDNWGQGTSVTVSS VL: DIVLTQSPATLSVTPGHSVSLSCRASQSISNNLHWYQKKSHESPRLLIKYVSQSISGIPSRFSGSGSGTDFTLSINSVETEDFGMYFCQQSYNWPLTFGAGTKLELK | ≥ 60% | –
antibody 48 (antibody, V domains shown, mouse IgG, kappa light chain; also called clone #48; purified antibody 48) VH: QVQLQQSGTELVRPGTSVKVSCKASGYAFTNYLIEWVKQRPGQGLEWIGVINPGSGFTKYNEKFKGKATLTADKSSSTVYMHLSSLTSEDSAVYFCARGLYRAMDYWGQGTSVTVSS VL: DIQMTQSPASQSASLGESVTITCLASQTIATWLAWYQQKPGKSPQLLIYGATTLADGVPSRFSGGGSGTKFSFKISSLQAEDFVSYYCQQLYSTPYTFGGGTKLEIK | – | ≥ 30%
antibody 50 (antibody, V domains shown, mouse IgG, kappa light chain; also called clone #50; purified antibody 50) VH: QVQLQQSGAELVRPGASVKVSCKASGYAFSNYLIEWVKQRPGQGLEWIGVINPGSGFTKYNEKFKGKATLTADKSSSTAYMQLSSLTSEDSAVYFCARGLYRAMDYWGQGTSVTVSS VL: DIQMTQSPASQSASLGESVTITCLASQTIGTWLAWYQQKPGKSPQLLIYAAASLADGVPSRFSGGGSGTKFSFKISSLQAEDFVNYYCQQIYSTPYTFGGGTKLEIK | – | ≥ 30%
